Measured values published in the RNAGym collection of RNA variant scans (doi:10.1073/pnas.2313332121).

B1: TPR t1 (parent)
chain: GACCAAUCUGCCCUCAGAGCUCGAGAACAUCUUCGGAUGCAGAGGAGGCAGGCUUCGGUGGCGCGAUAGCGCCAACGUCCUCAACCUCCAAUGCAUCCCACCACAUGAUGAUGCCUGAAGAGCCUUGGUUUUUUG

Variants of: B1
Test: polymerase ribozyme fitness, log enrichment relative to wild type (log ratio); higher = more active; in vitro selection for triplet polymerase activity
In short: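 Each subunit of a heterodimeric triplet polymerase ribozyme was represented by a PCR-built, transcribed mutant library that underwent triplicate single-round in vitro selection with frozen incubation at −7 °C. Extended constructs were recovered by gel excision, streptavidin-bead capture and RT-PCR, and Illumina sequencing of input and output libraries kept genotypes with ≥10 input reads and ≥1 read per output. Fitness is the logarithm of genotype enrichment relative to wild-type enrichment, from inverse-variance-weighted replicate averages, with a logarithm base of 2.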

Variant	polymerase ribozyme fitness (log ratio)
G61A C70G	-4.02
G58A A84U U133A	-0.154
C56U U130A	0.174
C56U U130C	1.02
G57U G63A C89G	-3.98
G60C A121U U125G U129G	-0.914
G61A C64U U81G G120U	-7.13
G58C U133A	0.072
G60A U112C	1.25
G60C C124U G135A	2.05
U59C A91G U133G	-2.51
G58C C82G U87G G93C C123A	-0.69
G57C G61A C97G	-4.41
G57U U81G	-0.222
U59A C124A	1.62
G61A G128C	-1.93
G57U C72G U96A	-2.83
G57U C72G C115A U132C G135C	-4.51
G58C A84U A100C	-1.55
G57C C62U	-0.549
G61A C104A	-1.95
G60U C102U	-1.09
G61A C73U A91C C101A	-2.91
G57A G77C	-2.28

Variant	polymerase ribozyme fitness (log ratio)
U59C U129C	-1.12
G57A G63A	-2.04
G58U G61C A90G	0.258
G58A U96C	-0.271
G60C A66G	-1.22
G57U G61C U92C	-2.88
G60C C62U	-2.34
G60U C76U	-2.74
G60U C85A A103U A111C	-4.74
G58C C101G U112C U129G	-1.34
G61A G77A A95U	-1.47
G61A G113A	-0.325
G57U G110U	-1.8
G60U U87A	0.377
U59G C85U C115A	-0.695
G60C A118U	-0.0622
G60A C79U U96A C115U C123G U132A	-1.19
U59G G60A C70G C115A A121C	-4.99
G60U A68G	-3.02
U59C U109C C114A	-6.67
G58C G63C G128A	-1.77
U59C U78G	-0.0388
G58C G93A C114U	-3.02
G61A C88G C104U C123G	1.29

Variant	polymerase ribozyme fitness (log ratio)
G60U U130C	0.326
G58C C85A	0.0552
G57U C94G U112G	-4.47
U59G C73A C88A	-2.15
G60U G61C	-1.45
G60U G120A C124A	1.48
G57U U132C	0.0378
G61A G107A	-3.6
G61A C97A	-3.78
U59C A119G	0.816
G60C A74U U81G C115A	-3.12
C56U U131G	0.127
G60C U131A	-1.69
G60A U92G C115A G120C	-2.03
G57C C70U	-0.607
U59C U78C A83U C115A	-1.1
G57A U78G C82G	-0.698
G60C G107A	-5.47
G60C G107U	-4.16
G57U C94A	-1.08
G57C G63A A100U U112C U125C	-0.23
U59C G127U	-0.462
G61A C64U C72U A91U	-1.32
G57U C62U U81A	-0.351

Variant	polymerase ribozyme fitness (log ratio)
G60C C99U	-4.01
G60U C89G U96G U129A	-3.9
U59C G93C G113U U133G	-3.53
G60U G63A C97A C99A A111U G122U U130A	-6.95
G60A A121C	1.29
G57U U125A	-0.415
G58U G61A	-0.176
G61A A108U G120U	-6.8
G61A C115A U129A U132A	-3.87
U59G A90U	-0.957
U59A G77U G117U	-2.87
G57C A91C	-0.77
G58U C104U A105U G110A C124U U133G	-7.29
U59C G93A	-1.47
U59C G128U	-2.04
G60A C80A C85G C98U	-5.64
G60U C104A	-1.7
G57C C99U A118G	-4.32
G60A G69U C82U C85G U129A	-4.53
G60C G77U	-0.19
G60C U109G G120A	-5.9
G61A A111U U116C	-4.5
G60A G93A	0.0256
G58C C72U A119U	-0.967

Variant	polymerase ribozyme fitness (log ratio)
G61A G120A U133A	0.274
U59C C72U G117A	-1.45
G60U G110A	-1
G60U G110U	-0.553
G60C U106C	-0.702
G60C U106G	-3.41
G60U C94A	-0.596
U59A C70U U125A U133A	-1.97
G57U C101G U106A G122A	-0.938
U59C G122A C123U G128C	-0.638
U59G G61A	-2.76
G61A C88U A105G	-2.9
G57C C97U G110U C115U	-6.98
G58C C72G A121U	1.78
U59G A111C	0.213
U59C U92G C114G U125G	-4.63
U59A G60A	0.122
G57U G69U	-0.378
G60C C102A	-3.75
G58C U129G	-0.485
U59G C70U C101A	-2.5
U59G C124U	1.25
G61A A111C	-0.072
G57A C115G	-2.25

Variant	polymerase ribozyme fitness (log ratio)
G60A A66U	-1.29
G60U U112G U116C	-1.99
G57A G60A	-0.384
G61A C88U A100U G120A	-0.447
G57U C70G C124G	-2.06
G57U C62A G117U	-5.4
G60A G77C A111C C123A	-3.68
G58C G110C A121U	-4.05
G57A A75U U96C U131C	-1.53
G61A C98U G120U	-0.011
G60A C70U C102A C115A	-3.29
G60U U78A C89G	-1.87
G57U G71C	-3.42
G60A C88U G127A	-1.7
G58A C82G C88A G127U	-3.33
G60A C88G G113A	-2.28
G61A C85G	0.134
U59G G63A U87C C114U	-4.39
G60U C101A C123G	0.75
G57U C85A	-2.14
G60A G63A	-2.96
G57C C62A G122A	-3.31
G57C A83G U116G	-2.83
U59G C99U U106A	-1.43

Variant	polymerase ribozyme fitness (log ratio)
G61A G71U	-1.6
G60U G117A	-0.487
G60U G117C	-3.52
G58C C80A	-3.5
G58C C80G C88A	-6.49
G57A A95C	-1.81
G57C G60U A100U U130G	-0.0419
U59G G127U	-0.904
G61A G69A	-4.21
G60A U130G	-0.663
G60A U130A	-0.439
G60A G77U	-0.312
G60U G93U A108G G120U	-3.22
U59A C123G G127A	0.53
U59C C82A C88G	-2.83
G57C U81C	0.391
G61A C79A	-2.09
G60U A100C	-1.26
G60C C80A	-4.35
G60A G110U	-1.74
G58C C102A	-2.66
G58A C64U U78C C86U A111C U129C	-1.68
G61A G77A C89U U126A	-2.77
